The target in assay [1] is T1, recombinant human OX40L protein (R&D Systems, cat. #1054-OX) (human, UniProt P23510 51-183).
T1 sequence: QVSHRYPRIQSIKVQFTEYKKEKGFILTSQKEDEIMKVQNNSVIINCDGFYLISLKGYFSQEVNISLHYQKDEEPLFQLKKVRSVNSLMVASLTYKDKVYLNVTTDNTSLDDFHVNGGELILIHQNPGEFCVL
Nature of the assay: cell-based or functional assay.

In the next assay the target is T2, AVI-GST-His6-hOX40L (human, UniProt P23510 51-183).
T2 sequence: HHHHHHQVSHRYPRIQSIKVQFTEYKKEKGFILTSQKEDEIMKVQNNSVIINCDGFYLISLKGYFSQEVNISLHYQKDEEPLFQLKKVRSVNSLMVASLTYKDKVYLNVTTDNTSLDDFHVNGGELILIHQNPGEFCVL
Nature of the assay: cell-based or functional assay.

Assay [2] addresses T1, recombinant human OX40L protein (R&D …). Briefly: SPR steady state, Biacore T200; OX40L immobilised on CM5, FcFab in solution. The method, then:
Recombinant OX40L proteins (human OX40L protein, R&D systems, cat. #1054-OX; cynomolgus monkey OX40L, Novoprotein cat. #CP72) were immobilized onto Biacore CM5 sensor chips and anti-OX40L antibodies were bound to this surface at a range of concentrations. The response at steady state was measured with a Biacore T200 instrument (GE Healthcare) and plotted against the concentration of antibody and fit to a 1:1 binding model. The steady state KD was determined as the antibody concentration at a response equal to half the maximal response (Rₘₐₓ).
As with the IgG clones, binding affinity to human OX40L was determined for all twelve FcFabs using steady state affinity assay as described in section 1.1.7 of Example 1. […]
A general note: In SPR one partner is held on a chip, and binding of the other changes the refractive index at the surface.

B1: 95B06 (FcFab) (antibody)
chain 1: EPKSSDKTHTCPPCPAPPVAGPSVFLFPPKPKDTLMISRTPEVTCVVVDVSHEDPEVKFNWYVDGVEVHNAKTKPREEQYNSTYRVVSVLTVLHQDWLNGKEYKCAVSNKALPSSIEKTISKAKGQPREPQVYTLPPSREEMTKNQVSLTCLVKGFYPSDIAVEWESNGQPENNYKTTPPVLDSDGSFFLYSKLTVDKSRWQQGNVFSCSVMHEALHNHYTQKSLSLSPGAGGGGSGGGGSGGGGSEVQLLESGGGLVQPGGSLRLSCAASGFTFSSYAMTWVRQAPGKGLEWVSDISGSGGSTKYADSVKGRFTISRDNPKNTLYLQMNSLRAEDTAVYYCAKDLGFYSTWDTDYWGQGTLVTVSSASTKGPSVFPLAPSSKSTSGGTAALGCLVKDYFPEPVTVSWNSGALTSGVHTFPAVLQSSGLYSLSSVVTVPSSSLGTQTYICNVNHKPSNTKVDKRVEPKSC
chain 2: DMQMTQSPSSLSASVGDRVTITCRASQGIRNDLDWYQQKPGKVPKRLIHAASSLQSGVPSRFSGSGSGTEFTLTISSLQPEDFVTYYCLQHNTYPWTFGQGTKLEIKRTVAAPSVFIFPPSDEQLKSGTASVVCLLNNFYPREAKVQWKVDNALQSGNSQESVTEQDSKDSTYSLSSTLTLSKADYEKHKVYACEVTHQGLSSPVTKSFNRGEC
B1: the “Primary T cell activation assay IC50” value in assay [1] was determined as 38 nM. For the same molecule, the “OX40L neutralization/OX40-HEK Reporter IC50” value with AVI-GST-His6-hOX40L is 30.8 nM. The dissociation constant Kd in assay [2] was 64.1 nM.

B2: 89B09 (FcFab) (antibody)
heavy: EPKSSDKTHTCPPCPAPPVAGPSVFLFPPKPKDTLMISRTPEVTCVVVDVSHEDPEVKFNWYVDGVEVHNAKTKPREEQYNSTYRVVSVLTVLHQDWLNGKEYKCAVSNKALPSSIEKTISKAKGQPREPQVYTLPPSREEMTKNQVSLTCLVKGFYPSDIAVEWESNGQPENNYKTTPPVLDSDGSFFLYSKLTVDKSRWQQGNVFSCSVMHEALHNHYTQKSLSLSPGAGGGGSGGGGSGGGGSEVQLVESGPGLVKPSETLSLTCTVSGVSIRSNGYYWGWIRQSPGKGLEWIGNMDYSGTYQNPSLTSRVTISGDASKNQFSLKLRSVTAADTAVYFCARERSNNWYPIDYWGQGTLVTVSSASTKGPSVFPLAPSSKSTSGGTAALGCLVKDYFPEPVTVSWNSGALTSGVHTFPAVLQSSGLYSLSSVVTVPSSSLGTQTYICNVNHKPSNTKVDKRVEPKSC
light: SSELTQDPAVSVALGQTVRITCQGDSVRRFFAHWYQQKPGQAPILVISGKDTRPSGIPDRFSGSISGNTASLTITGAQAEDEADYYCNSRDSSGYLVLFGGGTKLTVLGQPKAAPSVTLFPPSSEELQANKATLVCLISDFYPGAVTVAWKADSSPVKAGVETTTPSKQSNNKYAASSYLSLTPEQWKSHKSYSCQVTHEGSTVEKTVAPTECS
As to B2, the “Primary T cell activation assay IC50” value in assay [1] was 6.1 nM. Besides, the “OX40L neutralization/OX40-HEK Reporter IC50” value in the assay with AVI-GST-His6-hOX40L came to 4.7 nM. The equilibrium dissociation constant (Kd) in assay [2] is 44.8 nM.

B3: 88B06 (FcFab) (antibody)
chain 1: EPKSSDKTHTCPPCPAPPVAGPSVFLFPPKPKDTLMISRTPEVTCVVVDVSHEDPEVKFNWYVDGVEVHNAKTKPREEQYNSTYRVVSVLTVLHQDWLNGKEYKCAVSNKALPSSIEKTISKAKGQPREPQVYTLPPSREEMTKNQVSLTCLVKGFYPSDIAVEWESNGQPENNYKTTPPVLDSDGSFFLYSKLTVDKSRWQQGNVFSCSVMHEALHNHYTQKSLSLSPGAGGGGSGGGGSGGGGSEVQLLESGGGLVQPGGSLRLSCAASGFTFSNYAMSWVRQAPGKGLEWVSVISGSGDSTYYAESVKGRFTISRDNSKNTLYLQMTSLRAEDTAEYYCAKDRTPVYGLDVWGQGTTVTVSSASTKGPSVFPLAPSSKSTSGGTAALGCLVKDYFPEPVTVSWNSGALTSGVHTFPAVLQSSGLYSLSSVVTVPSSSLGTQTYICNVNHKPSNTKVDKRVEPKSC
chain 2: SYELTQPLSVSVALGQTARISCGGNNIGRKNVHWYQQKPGQAPVLVIYGDSNRPSGIPERFSGSNSGNTATLTIGRAQAGDEADYYCQVWDSSTVFGGGTKLTVLGQPKAAPSVTLFPPSSEELQANKATLVCLISDFYPGAVTVAWKADSSPVKAGVETTTPSKQSNNKYAASSYLSLTPEQWKSHKSYSCQVTHEGSTVEKTVAPTECS
Turning to B3, in assay [1], the “Primary T cell activation assay IC50” value is more than 161 nM. Moreover, the “OX40L neutralization/OX40-HEK Reporter IC50” value with AVI-GST-His6-hOX40L came out at 102 nM. In assay [2], the Kd is 35.5 nM.

B4: 98C01 (FcFab) (antibody)
heavy: EPKSSDKTHTCPPCPAPPVAGPSVFLFPPKPKDTLMISRTPEVTCVVVDVSHEDPEVKFNWYVDGVEVHNAKTKPREEQYNSTYRVVSVLTVLHQDWLNGKEYKCAVSNKALPSSIEKTISKAKGQPREPQVYTLPPSREEMTKNQVSLTCLVKGFYPSDIAVEWESNGQPENNYKTTPPVLDSDGSFFLYSKLTVDKSRWQQGNVFSCSVMHEALHNHYTQKSLSLSPGAGGGGSGGGGSGGGGSQVQLQESGPGLVKPSETLSLTCTVSGGSISSSSYYWGWIRQPPGKGLEWIGGIGSVDYSGNTYYKPSLKSRVTISVDTSKNQFSLKLSSVTAADTAVYHCARHRGIYFFDYWGQGTLVTVSSASTKGPSVFPLAPSSKSTSGGTAALGCLVKDYFPEPVTVSWNSGALTSGVHTFPAVLQSSGLYSLSSVVTVPSSSLGTQTYICNVNHKPSNTKVDKRVEPKSC
light: SYELTQPPSVSVALGQTARITCGGNNIENKNVHWYQQKPGQAPVLVIYRDSNRPSGIPERFSGSNSGNTATLSINRAQAGDEADYYCQVWDSNTVVFGGGTKLTVLGQPKAAPSVTLFPPSSEELQANKATLVCLISDFYPGAVTVAWKADSSPVKAGVETTTPSKQSNNKYAASSYLSLTPEQWKSHKSYSCQVTHEGSTVEKTVAPTECS
Take B4: the “OX40L neutralization/OX40-HEK Reporter IC50” value in the assay with AVI-GST-His6-hOX40L stood at 5.4 nM. In addition, in assay [2], the dissociation constant Kd was 27.8 nM.

B5: 30F02 (FcFab) (antibody)
chain 1: EPKSSDKTHTCPPCPAPPVAGPSVFLFPPKPKDTLMISRTPEVTCVVVDVSHEDPEVKFNWYVDGVEVHNAKTKPREEQYNSTYRVVSVLTVLHQDWLNGKEYKCAVSNKALPSSIEKTISKAKGQPREPQVYTLPPSREEMTKNQVSLTCLVKGFYPSDIAVEWESNGQPENNYKTTPPVLDSDGSFFLYSKLTVDKSRWQQGNVFSCSVMHEALHNHYTQKSLSLSPGAGGGGSGGGGSGGGGSQLQLQESGPGLVKPSETLSLTCTVSGASISSSNHYWGWGWIRQPPGKGLEWIGSIYYSGNTYYNPSLKSRVTISVDTSKNQFSLKLSSVTAADTAVYYCARHRGSYFFDHWGQGTLVTVSSASTKGPSVFPLAPSSKSTSGGTAALGCLVKDYFPEPVTVSWNSGALTSGVHTFPAVLQSSGLYSLSSVVTVPSSSLGTQTYICNVNHKPSNTKVDKRVEPKSC
chain 2: SYVLTQPLSVSVALGQTARITCGGNNIGDKNVHWYQQKPGQAPVLVISRDSNRPSGIPERFSGSNSGNTATLTISRAQAGDESDYYCQVWDSSTVVFGGGTKVTVLGQPKAAPSVTLFPPSSEELQANKATLVCLISDFYPGAVTVAWKADSSPVKAGVETTTPSKQSNNKYAASSYLSLTPEQWKSHKSYSCQVTHEGSTVEKTVAPTECS
Consider B5, for which the “Primary T cell activation assay IC50” value in assay [1] is 2.9 nM. Besides, in the assay with AVI-GST-His6-hOX40L, the “OX40L neutralization/OX40-HEK Reporter IC50” value is 52.8 nM. Besides, in assay [2], the Kd came out at 56 nM.

B6: 98E10 (FcFab) (antibody)
heavy: EPKSSDKTHTCPPCPAPPVAGPSVFLFPPKPKDTLMISRTPEVTCVVVDVSHEDPEVKFNWYVDGVEVHNAKTKPREEQYNSTYRVVSVLTVLHQDWLNGKEYKCAVSNKALPSSIEKTISKAKGQPREPQVYTLPPSREEMTKNQVSLTCLVKGFYPSDIAVEWESNGQPENNYKTTPPVLDSDGSFFLYSKLTVDKSRWQQGNVFSCSVMHEALHNHYTQKSLSLSPGAGGGGSGGGGSGGGGSQLQLQESGPGLVKPSETLSLTCTVAGASVSSSSYYWGWIRQSPGKGLEWIGTINYGGSTYHNPSLKRRVTVSVDTSKNQFSLKLTSVTAADTAVYYCARHRGIYHFDYWGQGTLVTVSSASTKGPSVFPLAPSSKSTSGGTAALGCLVKDYFPEPVTVSWNSGALTSGVHTFPAVLQSSGLYSLSSVVTVPSSSLGTQTYICNVNHKPSNTKVDKRVEPKSC
light: SYELTQPLSVSVALGQTARITCGGNNIENKNVHWYQQMPGQAPVLVIYRDSNRPSGIPERFSGSNSGNTATLTINRAQAGDEADYYCQVWDSNTVVFGGGTKVTVLGQPKAAPSVTLFPPSSEELQANKATLVCLISDFYPGAVTVAWKADSSPVKAGVETTTPSKQSNNKYAASSYLSLTPEQWKSHKSYSCQVTHEGSTVEKTVAPTECS
Turning to B6, the “Primary T cell activation assay IC50” value in assay [1] amounted to 5.3 nM. Besides, the “OX40L neutralization/OX40-HEK Reporter IC50” value with AVI-GST-His6-hOX40L turned out to be 5.7 nM. In assay [2], the Kd was determined as 33 nM.

B7: 68F03 (FcFab) (antibody)
chain 1: EPKSSDKTHTCPPCPAPPVAGPSVFLFPPKPKDTLMISRTPEVTCVVVDVSHEDPEVKFNWYVDGVEVHNAKTKPREEQYNSTYRVVSVLTVLHQDWLNGKEYKCAVSNKALPSSIEKTISKAKGQPREPQVYTLPPSREEMTKNQVSLTCLVKGFYPSDIAVEWESNGQPENNYKTTPPVLDSDGSFFLYSKLTVDKSRWQQGNVFSCSVMHEALHNHYTQKSLSLSPGAGGGGSGGGGSGGGGSQLQLQESGPGLVKPSETLSLTCTVSGGSIDTSSQYWAWIRQPPGKGLEWIGGIYFSGSTYQNPSLKSRVTTSVDTSKNQFSLRLSSMTAADTAVYYCARHRGIYFFDYWGQGTLVTVSSASTKGPSVFPLAPSSKSTSGGTAALGCLVKDYFPEPVTVSWNSGALTSGVHTFPAVLQSSGLYSLSSVVTVPSSSLGTQTYICNVNHKPSNTKVDKRVEPKSC
chain 2: SFELTQPLSVSVALGQTARITCGGINIENKNVHYYQQKPGQAPVLVIYRDTNRPSGIPERFSGSNSGNTATLTISRAQAGDEADYYCQVWDSNTVIFGGGTKVTVLGQPKAAPSVTLFPPSSEELQANKATLVCLISDFYPGAVTVAWKADSSPVKAGVETTTPSKQSNNKYAASSYLSLTPEQWKSHKSYSCQVTHEGSTVEKTVAPTECS
Regarding B7, the “Primary T cell activation assay IC50” value in assay [1] worked out at 15.6 nM. Moreover, in the assay with AVI-GST-His6-hOX40L, the “OX40L neutralization/OX40-HEK Reporter IC50” value stood at 5.5 nM. Besides, the equilibrium dissociation constant (Kd) in assay [2] stood at 33.1 nM.

Broadly, the Kd is the free concentration of one partner at which half of the binding sites on the other are occupied at equilibrium, for simple one-to-one binding.

Source of the values: patent publication US20240262922A1 (Merck KGaA, published 2024).
